Data published in article PMC5105168, “AKAP95 regulates splicing through scaffolding RNAs and RNA processing factors” (Nature Communications, 2016).

B1: GST-hnRNP H1 (natural protein, human (cDNA from 293 cells), UniProt P31943 1-449, looked up)
chain: MMLGTEGGEGFVVKVRGLPWSCSADEVQRFFSDCKIQNGAQGIRFIYTREGRPSGEAFVELESEDEVKLALKKDRETMGHRYVEVFKSNNVEMDWVLKHTGPNSPDTANDGFVRLRGLPFGCSKEEIVQFFSGLEIVPNGITLPVDFQGRSTGEAFVQFASQEIAEKALKKHKERIGHRYIEIFKSSRAEVRTHYDPPRKLMAMQRPGPYDRPGAGRGYNSIGRGAGFERMRRGAYGGGYGGYDDYNGYNDGYGFGSDRFGRDLNYCFSGMSDHRYGDGGSTFQSTTGHCVHMRGLPYRATENDIYNFFSPLNPVRVHIEIGPDGRVTGEADVEFATHEDAVAAMSKDKANMQHRYVELFLNSTAGASGGAYEHRYVELFLNSTAGASGGAYGSQMMGGMGLSNQSSYGGPASQQLSGGYGGGYGGQSSMSGYDQVLQENSSDFQSNIA
notes: hnRNP H1, cDNA amplified from 293 cell cDNAs, cloned into pGEX-4T-1; source: E. coli BL21 (DE3), purified on glutathione sepharose 4B without elution
B2: purified Flag-tagged AKAP95 (natural protein)
chain: not shown
notes: AKAP95 (AKAP8) cDNA in pFastBac1; also called F-AKAP95; FLAG-AKAP95; source: sf9 cells (baculovirus), purified (anti-FLAG M2 agarose, FLAG peptide elution)

Legend:
[1] = target: B2; assay: pull-down; GST fusions bound to glutathione resin, purified F-AKAP95 proteins in solution, BC200, 0.1% NP40, immunoblot; details: both partners purified
[2] = target: T1, purified AKAP95-MBP fusion protein (human, UniProt O43823 1-692); assay: pull-down; purified MBP or AKAP95-MBP bound to amylose resin, purified F-AKAP95 in solution, BC200, 0.05% NP40, immunoblot; details: both partners purified
T1 construct: AKAP95 (AKAP8); source: sf9 cells (baculovirus), purified on amylose resin, kept on the resin
T1 sequence (O43823 whole entry, the tested form may be a part): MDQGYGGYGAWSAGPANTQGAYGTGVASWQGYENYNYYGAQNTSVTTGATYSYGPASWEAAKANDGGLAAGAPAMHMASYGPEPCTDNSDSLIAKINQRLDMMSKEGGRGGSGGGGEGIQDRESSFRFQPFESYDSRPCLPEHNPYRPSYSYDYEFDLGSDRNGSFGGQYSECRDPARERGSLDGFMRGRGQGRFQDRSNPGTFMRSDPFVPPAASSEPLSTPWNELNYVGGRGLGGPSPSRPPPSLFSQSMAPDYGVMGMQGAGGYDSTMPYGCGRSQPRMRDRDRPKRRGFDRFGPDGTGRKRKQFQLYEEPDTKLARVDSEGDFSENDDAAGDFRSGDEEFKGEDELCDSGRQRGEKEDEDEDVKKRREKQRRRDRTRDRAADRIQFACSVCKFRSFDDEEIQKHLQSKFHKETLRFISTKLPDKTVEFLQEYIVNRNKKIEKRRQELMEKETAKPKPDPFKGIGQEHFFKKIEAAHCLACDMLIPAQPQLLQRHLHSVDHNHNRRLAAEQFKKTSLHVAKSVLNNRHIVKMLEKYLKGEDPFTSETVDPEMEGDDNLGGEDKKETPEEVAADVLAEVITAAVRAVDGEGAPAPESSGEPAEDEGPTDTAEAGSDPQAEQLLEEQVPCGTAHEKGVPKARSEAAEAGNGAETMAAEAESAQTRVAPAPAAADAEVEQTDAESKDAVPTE

Binder | binding result [1] | binding result [2]
B1 | binds | 
B2 |  | binds
